Reference: PMC2814163 (2010)

Target: T1, Glu-plasminogen (Homo sapiens, UniProt P00747)
T1 chain: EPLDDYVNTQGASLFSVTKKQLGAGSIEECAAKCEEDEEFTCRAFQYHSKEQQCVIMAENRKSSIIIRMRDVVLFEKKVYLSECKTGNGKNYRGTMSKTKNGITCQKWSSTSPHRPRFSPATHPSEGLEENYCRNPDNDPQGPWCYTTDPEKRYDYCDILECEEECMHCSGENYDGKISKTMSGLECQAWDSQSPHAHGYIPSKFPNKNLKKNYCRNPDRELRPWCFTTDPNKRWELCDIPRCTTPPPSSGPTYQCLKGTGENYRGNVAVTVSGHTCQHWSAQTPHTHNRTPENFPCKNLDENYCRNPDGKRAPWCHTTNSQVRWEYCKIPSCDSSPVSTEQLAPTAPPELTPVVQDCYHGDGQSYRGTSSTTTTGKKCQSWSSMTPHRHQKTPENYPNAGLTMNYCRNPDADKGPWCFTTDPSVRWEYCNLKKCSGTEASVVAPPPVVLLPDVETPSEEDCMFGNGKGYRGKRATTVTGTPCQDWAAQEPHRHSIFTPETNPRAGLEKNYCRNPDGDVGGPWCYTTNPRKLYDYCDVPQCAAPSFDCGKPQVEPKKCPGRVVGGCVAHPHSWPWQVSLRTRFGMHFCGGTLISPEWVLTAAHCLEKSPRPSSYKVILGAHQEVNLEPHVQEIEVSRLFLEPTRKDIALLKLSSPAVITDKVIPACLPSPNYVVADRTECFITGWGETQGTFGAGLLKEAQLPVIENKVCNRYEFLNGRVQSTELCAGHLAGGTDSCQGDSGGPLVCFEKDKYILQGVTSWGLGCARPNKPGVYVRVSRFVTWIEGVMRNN
Test: SPR

B1: CI-MPR Dom1-3 (protein)
chain: AAGTQGAEFPELCSYTWEAVDTKNNMLYKINICGNMGVAQCGPSSAVCMHDLKTDSFHSVGDSLLKTASRSLLEFNTTVNCKQQNHKIQSSITFLCGKTLGTPEFVTATDCVHYFEWRTTAACKKNIFKANKEVPCYAFDRELKKHDLNPLIKTSGAYLVDDSDPDTSLFINVCRDIEVLRASSPQVRVCPTGAAACLVRGDRAFDVGRPQEGLKLVSNDRLVLSYVKEGAGQPDFCDGHSPAVTITFVCPSERREGTIPKLTAKSNCRFEIEWVTEYACHRDYLESRSCSLSSAQHDVAVDLQPLSRVEASDSLFYTSEADEYTYYLSICGGSQAPICNKKDAAVCQVKKADSTQVKVAGRPQNLTLRYSDGDLTLIYFGGEECSSGFQRMSVINFECNQTAGNNGRGAPVFTGEVDCTYFFTWDTKYACVH
- Kd: 3 nM

B2: CI-MPR Dom1-2 (protein)
chain: AAGTQGAEFPELCSYTWEAVDTKNNMLYKINICGNMGVAQCGPSSAVCMHDLKTDSFHSVGDSLLKTASRSLLEFNTTVNCKQQNHKIQSSITFLCGKTLGTPEFVTATDCVHYFEWRTTAACKKNIFKANKEVPCYAFDRELKKHDLNPLIKTSGAYLVDDSDPDTSLFINVCRDIEVLRASSPQVRVCPTGAAACLVRGDRAFDVGRPQEGLKLVSNDRLVLSYVKEGAGQPDFCDGHSPAVTITFVCPSERREGTIPKLTAKSNCRFEIEWVTEYACHR
- Kd: 5 nM
